# Numbering of substitutions follows the chain as printed. Names and notes keep the numbering of the source.
# B1: Fab VH1-46_IGHD6-6*01_IGHJ1*01 S102A/S103P/S104F/H111F & L6_IGKJ1*01 S28N/S30D/S31H N53H (Fab, V domains shown)
# VH: QVQLVQSGAEVKKPGASVKVSCKASGYTFTSYYMHWVRQAPGQGLEWMGIINPSGGSTSYAQKFQGRVTMTRDTSTSTVYMELSSLRSEDTAVYYCAREEYAPFSAEYFQFWGQGTLVTVSS
# VL: EIVLTQSPATLSLSPGERATLSCRASQNVDHYLAWYQQKPGQAPRLLIYDASHRATGIPARFSGSGSGTDFTLTISSLEPEDFAVYYCQQRSNWPPWTFGQGTKVEIKR
# notes: Fab made in E. coli: VH on CH1 with His6 and Flag tags (Plasmid A), VL on kappa CL (Plasmid C); also called H: APFF & L: NDH N53H
# B2: Fab VH1-46_IGHD6-6*01_IGHJ1*01 S102A/S103P/S104F/H111F & L6_IGKJ1*01 S28N/S30D/S31H A55S (Fab, V domains shown)
# VH: B1 VH
# VL: B1 VL with H53N, A55S
# notes: Fab made in E. coli: VH on CH1 with His6 and Flag tags (Plasmid A), VL on kappa CL (Plasmid C); also called H: APFF & L: NDH A55S
# B3: Fab VH1-46_IGHD6-6*01_IGHJ1*01 S102A/S103P/S104F/H111F & L6_IGKJ1*01 S28N/S30D/S31H A55G (Fab, V domains shown)
# VH: B1 VH
# VL: B1 VL with H53N, A55G
# notes: Fab made in E. coli: VH on CH1 with His6 and Flag tags (Plasmid A), VL on kappa CL (Plasmid C); also called H: APFF & L: NDH A55G
# B4: Fab VH1-46_IGHD6-6*01_IGHJ1*01 S102A/S103P/S104F/H111F I51E/N52L/S54T/G56H & L6_IGKJ1*01 (Fab, V domains shown)
# VH: B1 VH with I51E, N52L, S54T, G56H
# VL: not shown
# notes: Fab made in E. coli: VH on CH1 with His6 and Flag tags (Plasmid A), VL on kappa CL (Plasmid C); also called H: APFF ELTH & L: wt
# B5: Fab VH1-46_IGHD6-6*01_IGHJ1*01 S102A/S103P/S104F/H111F I51N/N52L/S54T/G56H & L6_IGKJ1*01 (Fab, V domains shown)
# VH: B1 VH with I51N, N52L, S54T, G56H
# VL: not shown
# notes: Fab made in E. coli: VH on CH1 with His6 and Flag tags (Plasmid A), VL on kappa CL (Plasmid C); also called H: APFF NLTH & L: wt
# B6: Fab VH1-46_IGHD6-6*01_IGHJ1*01 S102A/S103P/S104F/H111F I51T/N52V & L6_IGKJ1*01 (Fab, V domains shown)
# VH: B1 VH with I51T, N52V
# VL: not shown
# notes: Fab made in E. coli: VH on CH1 with His6 and Flag tags (Plasmid A), VL on kappa CL (Plasmid C); also called H: APFF TV & L: wt; APFF I51T/N52V
# B7: Fab VH1-46_IGHD6-6*01_IGHJ1*01 S102A/S103P/S104F/H111F I51V/N52L/S54T/G56H & L6_IGKJ1*01 (Fab, V domains shown)
# VH: B1 VH with I51V, N52L, S54T, G56H
# VL: not shown
# notes: Fab made in E. coli: VH on CH1 with His6 and Flag tags (Plasmid A), VL on kappa CL (Plasmid C); also called H: APFF VLTH & L: wt
# B8: Fab VH1-46_IGHD6-6*01_IGHJ1*01 S102A/S103P/S104F/H111F N52L/S54T/G56H & L6_IGKJ1*01 (Fab, V domains shown)
# VH: B1 VH with N52L, S54T, G56H
# VL: not shown
# notes: Fab made in E. coli: VH on CH1 with His6 and Flag tags (Plasmid A), VL on kappa CL (Plasmid C); also called H: APFF LTH & L: wt
# B9: Fab VH1-46_IGHD6-6*01_IGHJ1*01 S102A/S103P/S104F/H111F I51T/N52L/P53A/S54T/G56H & L6_IGKJ1*01 (Fab, V domains shown)
# VH: B1 VH with I51T, N52L, P53A, S54T, G56H
# VL: not shown
# notes: Fab made in E. coli: VH on CH1 with His6 and Flag tags (Plasmid A), VL on kappa CL (Plasmid C); also called H: APFF TLATH & L: wt
# B10: Fab H:APFF ELTH & L6_IGKJ1*01 (Fab, V domains shown)
# VH: B1 VH with I51E, N52L, S54T, G56H
# VL: not shown
# notes: Fab, kappa light chain; also called H:APPF ELTH; H:APFF ELTH & L:wt
# B11: Fab H:APFF TLATH & L6_IGKJ1*01 (Fab, V domains shown)
# VH: B1 VH with I51T, N52L, P53A, S54T, G56H
# VL: not shown
# notes: Fab, kappa light chain; also called H:APFF TLATH & L:wt
# B12: Fab H:APFF NLTH & L6_IGKJ1*01 (Fab, V domains shown)
# VH: B1 VH with I51N, N52L, S54T, G56H
# VL: not shown
# notes: Fab, kappa light chain; also called H:APFF NLTH & L:wt
# B13: Fab H:APFF LTH & L6_IGKJ1*01 (Fab, V domains shown)
# VH: B1 VH with N52L, S54T, G56H
# VL: not shown
# notes: Fab, kappa light chain; also called H:APFF LTH & L:wt
# B14: Fab H:APFF TV & L6_IGKJ1*01 (Fab, V domains shown)
# VH: B1 VH with I51T, N52V
# VL: not shown
# notes: Fab, kappa light chain; also called H:APFF TV & L:wt; APFF I51T/N52V
# B15: Fab H:APFF VLTH & L6_IGKJ1*01 (Fab, V domains shown)
# VH: B1 VH with I51V, N52L, S54T, G56H
# VL: not shown
# notes: Fab, kappa light chain; also called H:APPF VLTH; H:APFF VLTH & L:wt
# B16: Fab H:APFF VLTH & L:NDH LG (Fab, V domains shown)
# VH: B1 VH with I51V, N52L, S54T, G56H
# VL: B1 VL with S52L, H53N, A55G
# notes: Fab, kappa light chain
# B17: Fab H:APFF LTH & L:NDH LG (Fab, V domains shown)
# VH: B1 VH with N52L, S54T, G56H
# VL: B1 VL with S52L, H53N, A55G
# notes: Fab, kappa light chain
# B18: Fab H:APFF LTH & L:NDH LS (Fab, V domains shown)
# VH: B1 VH with N52L, S54T, G56H
# VL: B1 VL with S52L, H53N, A55S
# notes: Fab, kappa light chain
# Biological target: T1, recombinant human DLL4 (Cat# 1506-D4/CF, R&D Systems) (human, UniProt Q9NR61 27-529)
# T1 construct: Bought protein; also called hDLL4; rHuman DLL4
# Experiment: ELISA, DLL4 coated, Fab 25 nM
# Experimental: (§1) The plate was blocked by adding 1% BSA in Tris-buffered Saline Tween (TBST) and incubating for 1 hour at room temperature followed by washing 2 times with 150 μl TBST. A Fab antibody was serially diluted in 1% BSA in PBS. A 50 μl aliquot of each serial dilution was added, in triplicate, to each well and the plate was incubated for 1 hour at room temperature followed by washing 2 times with TBST. 50 μl of either goat anti-human kappa HRP conjugated secondary antibody (Cat # A7164-1 mL, Sigma-Aldrich) or goat anti-human lambda HRP conjugated secondary antibody (Cat # L1645-1 ml, Sigma-Aldrich), diluted 1:1000 in 1% BSA in PBS, was added to each well and the plate was incubated for 30 minutes at room temperature followed by washing 3 times with 200 μl TBST. Finally, 50 μl TMB one-component reagent (Cat # TMBW-1000-01, BioFax) was added and allowed to develop for 2 minutes at room temperature. The reaction was immediately halted by the addition of 50 μl 0.5M H₂SO₄ and the absorbance at 450 nm was measured using an ELISA plate reader.
row,Binder,ELISA absorbance at 450 nm [A450]
1,B1,0.238
2,B2,0.407
3,B3,0.316

# Biological target: T1, recombinant human DLL4 (Cat# …)
# Experiment: ELISA, DLL4 coated, Fab 0.31 nM
# Experimental: as §1
row,Binder,ELISA absorbance at 450 nm [A450]
1,B4,2.29
2,B5,1.63
3,B6,0.648
4,B7,2.05
5,B8,2.4
6,B9,1.11

# Biological target: T1, recombinant human DLL4 (Cat# …)
# Experiment: ELISA, DLL4 coated, Fab 1.3 nM
# Experimental: as §1
row,Binder,ELISA absorbance at 450 nm [A450]
1,B4,0.402
2,B5,0.143
3,B6,0.055
4,B7,0.252
5,B8,0.653
6,B9,0.078

# Biological target: T1, recombinant human DLL4 (Cat# …)
# Experiment: ELISA, DLL4 coated, Fab 6.25 nM
# Experimental: as §1
row,Binder,ELISA absorbance at 450 nm [A450]
1,B1,0.109
2,B2,0.154
3,B3,0.125

# Biological target: T1, recombinant human DLL4 (Cat# …)
# Experiment: ELISA, DLL4 coated, Fab 5 nM
# Experimental: as §1
row,Binder,ELISA absorbance at 450 nm [A450]
1,B4,2.33
2,B5,1.75
3,B6,0.724
4,B7,2.2
5,B8,2.48
6,B9,1.27

# Biological target: T1, recombinant human DLL4 (Cat# …)
# Experiment: ELISA, DLL4 coated, Fab 50 nM
# Experimental: as §1
row,Binder,ELISA absorbance at 450 nm [A450]
1,B1,0.416
2,B2,0.588
3,B3,0.51

# Biological target: T2, Recombinant Human DLL4 (Cat# 1506-D4/CF, R&D Systems) (human, UniProt Q9NR61 27-529)
# T2 construct: Bought protein; also called rHuman DLL4; hDLL4
# Experiment: ELISA, DLL4 coated, estimated from dose-dependent binding
# Experimental: as §1
row,Binder,Kd [nM]
1,B10,1 to 10
2,B11,> 100
3,B12,1 to 10
4,B13,1 to 10
5,B14,10 to 100
6,B15,1 to 10

# Biological target: T1, recombinant human DLL4 (Cat# …)
# Experiment: ELISA, DLL4 coated, Fab 2.5 nM
# Experimental: as §1
row,Binder,ELISA absorbance at 450 nm [A450]
1,B4,1.98
2,B5,1.17
3,B6,0.358
4,B7,1.66
5,B8,2.15
6,B9,0.592

# Biological target: T1, recombinant human DLL4 (Cat# …)
# Experiment: ELISA, DLL4 coated, Fab 0.16 nM
# Experimental: as §1
row,Binder,ELISA absorbance at 450 nm [A450]
1,B4,2.17
2,B5,1.36
3,B6,0.506
4,B7,1.85
5,B8,2.35
6,B9,0.875

# Biological target: T1, recombinant human DLL4 (Cat# …)
# Experiment: ELISA, DLL4 coated, Fab 10 nM
# Experimental: as §1
row,Binder,ELISA absorbance at 450 nm [A450]
1,B4,2.17
2,B5,1.36
3,B6,0.506
4,B7,1.85
5,B8,2.35
6,B9,0.875

# Biological target: T1, recombinant human DLL4 (Cat# …)
# Experiment: ELISA, DLL4 coated, Fab 20 nM
# Experimental: as §1
row,Binder,ELISA absorbance at 450 nm [A450]
1,B4,2.29
2,B5,1.63
3,B6,0.648
4,B7,2.05
5,B8,2.4
6,B9,1.11

# Biological target: T1, recombinant human DLL4 (Cat# …)
# Experiment: ELISA, DLL4 coated, Fab 100 nM
# Experimental: as §1
row,Binder,ELISA absorbance at 450 nm [A450]
1,B1,0.608
2,B2,0.858
3,B3,0.814

# Biological target: T1, recombinant human DLL4 (Cat# …)
# Experiment: ELISA, DLL4 coated, Fab 12.5 nM
# Experimental: as §1
row,Binder,ELISA absorbance at 450 nm [A450]
1,B1,0.167
2,B2,0.258
3,B3,0.198

# Biological target: T1, recombinant human DLL4 (Cat# …)
# Experiment: ELISA, DLL4 coated, Fab 3.125 nM
# Experimental: as §1
row,Binder,ELISA absorbance at 450 nm [A450]
1,B1,0.089
2,B2,0.108
3,B3,0.093

# Biological target: T2, Recombinant Human DLL4 (Cat# …)
# Experiment: ELISA, DLL4 coated
row,Binder,fold increased binding affinity against the antibody mutants with heavy chain H:APFF ALTH [fold]
1,B16,~10
2,B17,~10
3,B18,~10

# Biological target: T1, recombinant human DLL4 (Cat# …)
# Experiment: ELISA, DLL4 coated, Fab 0.63 nM
# Experimental: as §1
row,Binder,ELISA absorbance at 450 nm [A450]
1,B4,1.01
2,B5,0.419
3,B6,0.115
4,B7,0.785
5,B8,1.37
6,B9,0.227

# Source: patent US20110318339A1 (FABRUS, published 2011)
